Data: patent US20200024330A1

Columns and labels:
Test in all cases: cell-based or functional assay
[1] = biological target: HIV-1 92BR020 envelope glycoprotein (Env), clade B (HIV-1)
[2] = biological target: HIV-1 92RW020 envelope glycoprotein (Env), clade A (HIV-1)
[3] = biological target: HIV-1 92TH021 envelope glycoprotein (Env), clade AE (HIV-1)
[4] = biological target: HIV-1 92UG005 envelope glycoprotein (Env), clade D (HIV-1)
[5] = biological target: HIV-1 92UG024 envelope glycoprotein (Env), clade D (HIV-1)
[6] = biological target: HIV-1 93IN905 envelope glycoprotein (Env), clade C (HIV-1)
[7] = biological target: HIV-1 93UG077 envelope glycoprotein (Env), clade A (HIV-1)
[8] = biological target: HIV-1 94UG103 envelope glycoprotein (Env), clade A (HIV-1)
[9] = biological target: HIV-1 APV13 envelope glycoprotein (Env), clade B (HIV-1)
[10] = biological target: HIV-1 APV17 envelope glycoprotein (Env), clade B (HIV-1)
[11] = biological target: HIV-1 APV6 envelope glycoprotein (Env), clade B (HIV-1)
[12] = biological target: HIV-1 CMU02 envelope glycoprotein (Env), clade AE (HIV-1)
[13] = biological target: HIV-1 JRCSF envelope glycoprotein (Env), clade B (HIV-1) (UniProt P20871)
[14] = biological target: HIV-1 JRFL envelope glycoprotein (Env), clade B (HIV-1)
[15] = biological target: HIV-1 MGRM-A-010 envelope glycoprotein (Env), clade A (HIV-1)
[16] = biological target: HIV-1 MGRM-AG-005 envelope glycoprotein (Env), clade AG (HIV-1)
[17] = biological target: HIV-1 MGRM-C-026 envelope glycoprotein (Env), clade C (HIV-1)
[18] = biological target: HIV-1 MGRM-C-027 envelope glycoprotein (Env), clade C (HIV-1)
[19] = biological target: HIV-1 MGRM-C-028 envelope glycoprotein (Env), clade C (HIV-1)
[20] = biological target: HIV-1 MGRM-D-001 envelope glycoprotein (Env), clade D (HIV-1)
[21] = biological target: HIV-1 MGRM-D-018 envelope glycoprotein (Env), clade D (HIV-1)
[22] = biological target: HIV-1 NL43 envelope glycoprotein (Env), clade B (HIV-1)
[23] = biological target: aMLV envelope protein (negative control virus)
[24] = biological target: HIV-1 92RW020 Env (pseudovirus) (HIV-1 92RW020)
[25] = biological target: HIV-1 ADA Env (pseudovirus) (HIV-1 ADA)
[26] = biological target: HIV-1 Env of isolate AC10 (HIV-1)
[27] = biological target: HIV-1 Env of isolate CAAN (HIV-1)
[28] = biological target: HIV-1 Env of isolate CAP45 (HIV-1)
[29] = biological target: HIV-1 Env of isolate DU156 (HIV-1)
[30] = biological target: HIV-1 Env of isolate DU422 (HIV-1)
[31] = biological target: HIV-1 Env of isolate Du172 (HIV-1)
[32] = biological target: HIV-1 Env of isolate PVO.4 (HIV-1)
[33] = biological target: HIV-1 Env of isolate REJ04541 (HIV-1)
[34] = biological target: HIV-1 Env of isolate THRO.18 (HIV-1)
[35] = biological target: HIV-1 Env of isolate TR0.11 (HIV-1)
[36] = biological target: HIV-1 Env of isolate ZM214 (HIV-1)
[37] = biological target: HIV-1 Env of isolate ZM233 (HIV-1)
[38] = biological target: HIV-1 Env of isolate ZM249 (HIV-1)
[39] = biological target: HIV-1 JR-CSF Env I309A (pseudovirus) (HIV-1 JR-CSF) (UniProt P20871)
[40] = biological target: HIV-1 JR-CSF Env Y318A (pseudovirus) (HIV-1 JR-CSF) (UniProt P20871)
[41] = biological target: HIV-1 JR-CSF Env, wild type (pseudovirus) (HIV-1 JR-CSF) (UniProt P20871)
[42] = biological target: HIV-1 JR-FL Env E168K (pseudovirus) (HIV-1 JR-FL)
[43] = biological target: MuLV envelope protein (control pseudovirus) (MuLV)

B1: PGT-135 monoclonal antibody (clones 5343_B08 and 5344_E16) (antibody, V domains shown)
VH: QLQMQESGPGLVKPSETLSLSCTVSGDSIRGGEWGDKDYHWGWVRHSAGKGLEWIGSIHWRGTTHYKESLRRRVSMSIDTSRNWFSLRLASVTAADTAVYFCARHRHHDVFMLVPIAGWFDVWGPGVQVTVSS
VL: EIVMTQSPDTLSVSPGETVTLSCRASQNINKNLAWYQYKPGQSPRLVIFETYSKIAAFPARFVASGSGTEFTLTINNMQSEDVAVYYCQQYEEWPRTFGQGTKVDIK
For B1, the IC50 (neutralization of pseudovirus) [1] was 0.104 µg/mL, the IC80 (neutralization of pseudovirus) [1] was 0.253 µg/mL and the IC90 (neutralization of pseudovirus) [1] was 0.43 µg/mL. The IC95 (neutralization of pseudovirus) [1] was 0.72 µg/mL, the IC50 (neutralization of pseudovirus) [2] was 0.157 µg/mL and the IC80 (neutralization of pseudovirus) [2] was 3.46 µg/mL. For the same binder, the IC90 (neutralization of pseudovirus) [2] was > 10 µg/mL, the IC95 (neutralization of pseudovirus) [2] was > 10 µg/mL and the IC50 (neutralization of pseudovirus) [3] was > 10 µg/mL. For the same binder, the IC80 (neutralization of pseudovirus) [3] was > 10 µg/mL, the IC90 (neutralization of pseudovirus) [3] was > 10 µg/mL and the IC95 (neutralization of pseudovirus) [3] was > 10 µg/mL. For the same binder, the IC50 (neutralization of pseudovirus) [4] was > 10 µg/mL, the IC80 (neutralization of pseudovirus) [4] was > 10 µg/mL and the IC90 (neutralization of pseudovirus) [4] was > 10 µg/mL. The IC95 (neutralization of pseudovirus) [4] was > 10 µg/mL, the IC50 (neutralization of pseudovirus) [5] was 0.0139 µg/mL and the IC80 (neutralization of pseudovirus) [5] was 0.054 µg/mL. The IC90 (neutralization of pseudovirus) [5] was 0.122 µg/mL, the IC95 (neutralization of pseudovirus) [5] was 0.267 µg/mL and the IC50 (neutralization of pseudovirus) [6] was 0.0183 µg/mL. It also gave an IC80 (neutralization of pseudovirus) [6] of 0.0648 µg/mL, an IC90 (neutralization of pseudovirus) [6] of 0.136 µg/mL and an IC95 (neutralization of pseudovirus) [6] of 0.268 µg/mL. The IC50 (neutralization of pseudovirus) [7] was > 10 µg/mL, the IC80 (neutralization of pseudovirus) [7] was > 10 µg/mL and the IC90 (neutralization of pseudovirus) [7] was > 10 µg/mL. The IC95 (neutralization of pseudovirus) [7] was > 10 µg/mL, the IC50 (neutralization of pseudovirus) [8] was > 10 µg/mL and the IC80 (neutralization of pseudovirus) [8] was > 10 µg/mL. For the same binder, the IC90 (neutralization of pseudovirus) [8] was > 10 µg/mL, the IC95 (neutralization of pseudovirus) [8] was > 10 µg/mL and the IC50 (neutralization of pseudovirus) [9] was 0.545 µg/mL. The IC80 (neutralization of pseudovirus) [9] was > 10 µg/mL, the IC90 (neutralization of pseudovirus) [9] was > 10 µg/mL and the IC95 (neutralization of pseudovirus) [9] was > 10 µg/mL. For the same binder, the IC50 (neutralization of pseudovirus) [10] was > 10 µg/mL, the IC80 (neutralization of pseudovirus) [10] was > 10 µg/mL and the IC90 (neutralization of pseudovirus) [10] was > 10 µg/mL. The IC95 (neutralization of pseudovirus) [10] was > 10 µg/mL, the IC50 (neutralization of pseudovirus) [11] was > 10 µg/mL and the IC80 (neutralization of pseudovirus) [11] was > 10 µg/mL. The IC90 (neutralization of pseudovirus) [11] was > 10 µg/mL, the IC95 (neutralization of pseudovirus) [11] was > 10 µg/mL and the IC50 (neutralization of pseudovirus) [12] was > 10 µg/mL. The IC80 (neutralization of pseudovirus) [12] was > 10 µg/mL, the IC90 (neutralization of pseudovirus) [12] was > 10 µg/mL and the IC95 (neutralization of pseudovirus) [12] was > 10 µg/mL. The IC50 (neutralization of pseudovirus) [13] was 0.113 µg/mL, the IC80 (neutralization of pseudovirus) [13] was 0.503 µg/mL and the IC90 (neutralization of pseudovirus) [13] was 1.47 µg/mL. The IC95 (neutralization of pseudovirus) [13] was 8.3 µg/mL, the IC50 (neutralization of pseudovirus) [14] was > 10 µg/mL and the IC80 (neutralization of pseudovirus) [14] was > 10 µg/mL. The IC90 (neutralization of pseudovirus) [14] was > 10 µg/mL, the IC95 (neutralization of pseudovirus) [14] was > 10 µg/mL and the IC50 (neutralization of pseudovirus) [15] was > 10 µg/mL. For the same binder, the IC80 (neutralization of pseudovirus) [15] was > 10 µg/mL, the IC90 (neutralization of pseudovirus) [15] was > 10 µg/mL and the IC95 (neutralization of pseudovirus) [15] was > 10 µg/mL. For the same binder, the IC50 (neutralization of pseudovirus) [16] was > 10 µg/mL, the IC80 (neutralization of pseudovirus) [16] was > 10 µg/mL and the IC90 (neutralization of pseudovirus) [16] was > 10 µg/mL. The IC95 (neutralization of pseudovirus) [16] was > 10 µg/mL, the IC50 (neutralization of pseudovirus) [17] was 0.0123 µg/mL and the IC80 (neutralization of pseudovirus) [17] was 0.0562 µg/mL. The IC90 (neutralization of pseudovirus) [17] was 0.139 µg/mL, the IC95 (neutralization of pseudovirus) [17] was 0.331 µg/mL and the IC50 (neutralization of pseudovirus) [18] was > 10 µg/mL. For the same binder, the IC80 (neutralization of pseudovirus) [18] was > 10 µg/mL, the IC90 (neutralization of pseudovirus) [18] was > 10 µg/mL and the IC95 (neutralization of pseudovirus) [18] was > 10 µg/mL. For the same binder, the IC50 (neutralization of pseudovirus) [19] was 2.16 µg/mL, the IC80 (neutralization of pseudovirus) [19] was > 10 µg/mL and the IC90 (neutralization of pseudovirus) [19] was > 10 µg/mL. The IC95 (neutralization of pseudovirus) [19] was > 10 µg/mL, the IC50 (neutralization of pseudovirus) [20] was > 10 µg/mL and the IC80 (neutralization of pseudovirus) [20] was > 10 µg/mL. For the same binder, the IC90 (neutralization of pseudovirus) [20] was > 10 µg/mL, the IC95 (neutralization of pseudovirus) [20] was > 10 µg/mL and the IC50 (neutralization of pseudovirus) [21] was 0.0433 µg/mL. For the same binder, the IC80 (neutralization of pseudovirus) [21] was 0.2 µg/mL, the IC90 (neutralization of pseudovirus) [21] was > 10 µg/mL and the IC95 (neutralization of pseudovirus) [21] was > 10 µg/mL. The IC50 (neutralization of pseudovirus) [22] was 6.79 µg/mL, the IC80 (neutralization of pseudovirus) [22] was > 10 µg/mL and the IC90 (neutralization of pseudovirus) [22] was > 10 µg/mL. For the same binder, the IC95 (neutralization of pseudovirus) [22] was > 10 µg/mL, the IC50 (neutralization of pseudovirus) [23] was > 10 µg/mL and the IC80 (neutralization of pseudovirus) [23] was > 10 µg/mL. The IC90 (neutralization of pseudovirus) [23] was > 10 µg/mL and the IC95 (neutralization of pseudovirus) [23] was > 10 µg/mL.

B2: 1489_I13 (PG16) (TCN-120) (antibody, V domains shown)
VH: QEQLLESGGGVVQPGGSLRLSCLASGFTFHKYGMHWVRQAPGKGLEWVALISDDGMRKYHSNSMWGRVTISRDNSKNTLYLQFSSLKVEDTAMFFCAREAGGPIWHDDVKYYDFNDGYYNYHYMDVWGKGTTVTVSS
VL: QSALTQPASVSGSPGQTITISCNGTSSDVGGFDSVSWYQQSPGKAPKVMVFDVSHRPSGISNRFSGSKSGNTASLTISGLHIEDEGDYFCSSLTDRSHRIFGGGTKVTVLG
With B2 the IC50 (ug/ml), neutralization [24] was 0.03 µg/mL, the IC50 (ug/ml), neutralization [25] was 0.008 µg/mL and the IC50, pseudovirus neutralization (TZM-bl) [26] was < 0.01 µg/mL. For the same binder, the IC50, pseudovirus neutralization (TZM-bl) [27] was 24.9 µg/mL, the IC50, pseudovirus neutralization (TZM-bl) [28] was < 0.01 µg/mL and the IC50, pseudovirus neutralization (TZM-bl) [29] was < 0.01 µg/mL. For the same binder, the IC50, pseudovirus neutralization (TZM-bl) [30] was 1.87 µg/mL, the IC50, pseudovirus neutralization (TZM-bl) [31] was < 0.01 µg/mL and the IC50, pseudovirus neutralization (TZM-bl) [32] was 20.6 µg/mL. The IC50, pseudovirus neutralization (TZM-bl) [33] was 0.34 µg/mL, the IC50, pseudovirus neutralization (TZM-bl) [34] was 7.41 µg/mL and the IC50, pseudovirus neutralization (TZM-bl) [35] was 10.9 µg/mL. For the same binder, the IC50, pseudovirus neutralization (TZM-bl) [36] was > 25 µg/mL, the IC50, pseudovirus neutralization (TZM-bl) [37] was < 0.01 µg/mL and the IC50, pseudovirus neutralization (TZM-bl) [38] was < 0.01 µg/mL. The IC50 (ug/ml), neutralization [39] was > 1 µg/mL, the IC50 (ug/ml), neutralization [40] was > 1 µg/mL and the IC50 (ug/ml), neutralization [41] was 0.002 µg/mL. The IC50 (ug/ml), neutralization [42] was 0.005 µg/mL and the IC50, pseudovirus neutralization (TZM-bl), control virus [43] was > 25 µg/mL.
